Laboratory results from patent US20230203124A1.

What was measured:
[1] = target: mutated ERBB2IP 25-AA long peptide presented by HLA-DQB1*0601 (human)
[2] = target: mutated ALK 25-AA long peptide on autologous B cells (HLA-DQB1*0601) (human)
[3] = target: wild-type ERBB2IP 25-AA long peptide on autologous B cells (HLA-DQB1*0601) (human)

## Mock-transduced autologous open-repertoire peripheral blood T cells (cells without a defined receptor)
[1]
  % IFN-γ+/mTCRβ- cells, intracellular IFN-γ by flow cytometry: 0%
[2]
  % IFN-γ+/mTCRβ- cells, intracellular IFN-γ by flow cytometry: 1%
[3]
  % IFN-γ+/mTCRβ- cells, intracellular IFN-γ by flow cytometry: 0%
